Here are results for two variants from publication PMC4428439.

B1: RssB, full-length, untagged, overexpressed in lysate [E. coli] / His6-IraP [E. coli] (parent)
chain 1: MTQPLVGKQILIVEDEQVFRSLLDSWFSSLGATTVLAADGVDALELLGGFTPDLMICDIAMPRMNGLKLLEHIRNRGDQTPVLVISATENMADIAKALRLGVEDVLLKPVKDLNRLREMVFACLYPSMFNSRVEEEERLFRDWDAMVDNPAAAAKLLQELQPPVQQVISHCRVNYRQLVAADKPGLVLDIAALSENDLAFYCLDVTRAGHNGVLAALLLRALFNGLLQEQLAHQNQRLPELGALLKQVNHLLRQANLPGQFPLLVGYYHRELKNLILVSAGLNATLNTGEHQVQISNGVPLGTLGNAYLNQLSQRCDAWQCQIWGTGGRLRLMLSAE
chain 2: MKNLIAELLFKLAQKEEESKELCAQVEALEIIVTAMLRNMAQNDQQRLIDQVEGALYEVKPDASIPDDDTELLRDYVKKLLKHPRQ

This test covers variants of B1. The experiment in a line: pull-down. Particulars: with His6-IraP [E. coli]; lysate of cells co-expressing RssB and His6-IraP applied to Ni-NTA beads; eluted with imidazole; n = 3; parent: 1; read off a plot.
Take chain 1 D58A: the ratio to parent worked out at 0.6.

Take chain 1 D58P: the ratio to parent turned out to be 0.36.
